Substitutions are numbered along the chain they refer to.
B1: PRT-588 (protein)
chain: MRNQTTTYSEVTPSHITSVWTKGVTPPEQFIQGEDVFHAPYIANQGWYDITKTFNGKDDLLCGAATAGNMLHWWFDQNKEQIENYLKKHPEKQKIMFNNEEMFDLREAINTKDSQTDSALFSYFKDKAFPNLSARRLGVMPDHVLDMFINGYYLNVGNTDKTDVNRGTKDLRGGIFDAVFTRGDQSKLLTARHDLKNKTLKEISDLIKQELTEGKALALSHTYANVRINHVINLWGADFDAEGNLEAIYVTDSDSNASIGMKKYYVGVNSAGKVAISAKKIEGDNIGAQVLGLFTLSTGQDIWQQTNLEHHHHHH
B2: PRT-581 (protein)
chain: MANQEIRYSKATPKTITSVWTKGVTPPENFIYNEDVLHAPYLANQGWYDITKTFNGKDDLLCGAATAGNMLHWWFDQNKEQIERYLKEHPEKQKINFNGEQMFDVKEAIDTKDSQTNSKLFEYFKDKAFPYLSTKHLGVFPDHVIDMFINGYRLSLTNHGPTPVKEQTKDPRGGIFDAVFTRGDQSKLLTSRHDFKEKTLNEISDLIKQELTEGKALGLSHTYANVRINHVINLWGADFDAEGNLEAIYVTDSDSNASIGMKKYYVGVNSAGKVAISAKEIEGDNIGAQVLGLFTLSTGKDIWEQTNLEHHHHHH
B3: PRT-271 (protein)
chain: MVTSVWTKGVTPPTDFIYGEDVLHAPYKAGQGWYDITKLFNGKDDLLCGAATAGNMLHWWFDQNKEQIENYLKKHPEKQKINFNGEQMFDVKEAIDTKDSQLDSKLFDYFKEKAFPYLSTKHLGVFPDHVIDMFINGYRLSLTNHGPTPVKRGSKDPRGGIFDAVFTRGDQSKLLTNRHDLKNKTLKEISDLIKQELTEGKALGISHTYANVRINHVINLWGADFDAEGNLEAIYVTDSDSNPSIGMKKYFVGVNSSGKVAISAKEIEEDNIGAQVLGLFTLSTGQDIWNQTN
B4: PRT-272 (protein)
chain: B3 chain with D108E, K111L, Y235A, P243A
B5: PRT-580 (protein)
chain: MANQEIRYSEETPKTITSVWTKGVTPPTDFIKNEDVFHAPYVANQGWYDITKTFNGKDDLLCGAATAGNMLHWWFDQNKEEIERYLKKHPEKQKINFNGEQMFDVKEAIDTKDSQTNSKLFEYFKDKAFPYLSTKHLGVFPDHVIDMFINGYRLSLTNHGPTPVKRGTKDPRGGIFDAVFTRGDQSKLLTSRHDFKEKTLKEISDLIKQELQEGKALGLSHTYANVRINHVINLWGADFDSEGNLEAIYVTDSDSNASIGMKKYYVGVNSAGKVAISAKEIEDDNIGAQVLGLFTLSTGKDIWEQTNLEHHHHHH
B6: PRT-574 (protein)
chain: B2 chain with K10E, A11E, E28T, N29D, L42I, E88K
B7: PRT-599 (protein)
chain: MANQEIRYSEETPSTITSVWTKGVTPPTDFIQNEDVLHAPYIANQGWYDITKTFNGKDDLLCGAATAGNMLHWWFDQNKEQIENYLKKHPEKQKINFNGEQMFDVKEAIDTKDSQTDSALFEYFKDKAFPYLSTKHLGVFPDHVIDMFINGYRLSLTNHGPTPVKRGTKDPRGGIFDAVFTRGDQSKLLTSRHDFKEKTLNEISDLIKQELTEGKALGLSHTYANVRINHVINLWGADFNAEGNLEAIYVTDSDSNASIGMKKYYVGVNSAGKVAISAKEIKGDNIGAQVLGLFTLSTGQDIWNQTNLEHHHHHH
B8: PRT-561 (protein)
chain: B7 chain with D29Q, Q32Y, L37F, A119K, E122N, G167Q, N240D, K282E, N304Q
B9: PRT-542 (protein)
chain: MANQEIRYSKNENPNVTIKWVHGIGEPTQAEKEKIEFWWYETTTTKFFNNRKVDHLGDGNQCWAKTDSNMLHWWFVQNEENINQYIEKKNITGKINFNGEQMFDVKEGIDDNQEPEKSYIANTFRTKKAHNLSTKHKGDYIINGLSWYLYGLNNFKNAHGPTPVKKKPKFYGPALFKDVFNRGDGNTPIIVETDFKEYTKKEFEDTLSAALDSKKAVGINIYGSNVDYQHAITLWGAAFDEEENIIAIYVVDNNFKFENRIFPYGIWYQKEGRPYLFNYEINSFVKNRYVGEITTLDKGEAQWQETNLEHHHHHH
B10: PRT-263 (protein)
chain: MVTSVWTKGVTPPTNFTYGEDVLHAPYVANQGWYDITKLFNGKDNLLCGAATAGNMLHWWFDQNKEQIENYLKKHPEKQKINFNGEQLFDVKEAIDTKDSQLDSKLFEYFLEKAFPNLSTKHLGVFPDHVIDMFINGYRLSLLNHGPTPVKRGSKDKRGGIFDAVFTRGVQSKLLTNRHDFKEKTLKEISDLIKQELTEGKALGISHTYANGRINHVINLWGADFDAEGNLEAIAVTDSDTNASIGMKKYFVGVNSSGKVAISAKEIEEDNIGAQVLGLFTLSTGQDIWNQTN
B11: PRT-264 (protein)
chain: B10 chain with E108D, L111K, N117Y, L143T, G212V, A235Y, A243P
B12: PRT-248 (protein)
chain: B10 chain with L39T, N45D, L88M, L111K, K157P, V170D, G212V, A235Y, T241S
B13: PRT-256 (protein)
chain: B10 chain with N45D, L88M, K157P, V170D, G212V, R213G, T241S
B14: PRT-528 (protein)
chain: MANQEIRYSEETPKTITSVWTKGVTPPTDFIQNEDVLHAPYIANQGWYDITKTFNGKDDLLCGAATAGNMLHWWFDQNKEEIENYLKKHPEKQKINFNGEQMFDVKEAIDTKDSQTDSALFEYFKDKAFPNLSTKHLGVMPDLVLDMFINGYYLSLGKHGPTPVKRGTKDPRGGIFDAVFTRGDQSKLLTARHDFKEKTLNEISDLIKQELTEGKALALSHTYANVRINHVINLWGADFNSEGNLEAIYVTDSDSNASIGMKKYYVGVNAAGKVAISAKEIEGDNIGAQVLGLFTLSTGQDIWEQTNLEHHHHHH
B15: PRT-527 (protein)
chain: B14 chain with Q32K, A191S, A270S

target: pooled human IgG (human IgG1, 2, 3 and 4)

Q: Which results are given for B1?
A: Enzyme Activity Endpoint Assay: Fab′2: 658 ng/µL; Enzyme Activity Endpoint Assay: Fc: 361 ng/µL; Enzyme Activity Endpoint Assay: IgG: 0 ng/µL; Enzyme Activity Endpoint Assay: scIgG: 0 ng/µL

Q: B2 was tested. Which Enzyme Activity Endpoint Assay: Fab′2 did it give?
A: The Enzyme Activity Endpoint Assay: Fab′2 was 660 ng/µL.

Q: And the Enzyme Activity Endpoint Assay: Fc?
A: Its Enzyme Activity Endpoint Assay: Fc is 365 ng/µL.

Q: And the Enzyme Activity Endpoint Assay: IgG?
A: The Enzyme Activity Endpoint Assay: IgG was 0 ng/µL.

Q: What about the Enzyme Activity Endpoint Assay: scIgG of the same protein?
A: Its Enzyme Activity Endpoint Assay: scIgG is 0 ng/µL.

Q: What does the source list for B3?
A: Enzyme Activity Endpoint Assay: Fab′2: 563 ng/µL; Enzyme Activity Endpoint Assay: Fc: 322 ng/µL; Enzyme Activity Endpoint Assay: IgG: 0 ng/µL; Enzyme Activity Endpoint Assay: scIgG: 0 ng/µL

Q: With B4 as the protein, how does the Enzyme Activity Endpoint Assay: Fab′2 read?
A: The Enzyme Activity Endpoint Assay: Fab′2 was 721 ng/µL.

Q: What about the Enzyme Activity Endpoint Assay: Fc of the same protein?
A: The Enzyme Activity Endpoint Assay: Fc was 389 ng/µL.

Q: What about the Enzyme Activity Endpoint Assay: IgG of the same protein?
A: Its Enzyme Activity Endpoint Assay: IgG is 0 ng/µL.

Q: What about the Enzyme Activity Endpoint Assay: scIgG of the same protein?
A: The Enzyme Activity Endpoint Assay: scIgG was 0 ng/µL.

Q: B5 was tested. Which Enzyme Activity Endpoint Assay: Fab′2 did it give?
A: Its Enzyme Activity Endpoint Assay: Fab′2 is 566 ng/µL.

Q: And the Enzyme Activity Endpoint Assay: Fc?
A: The Enzyme Activity Endpoint Assay: Fc was 282 ng/µL.

Q: What about the Enzyme Activity Endpoint Assay: IgG of the same protein?
A: The Enzyme Activity Endpoint Assay: IgG was 0 ng/µL.

Q: And the Enzyme Activity Endpoint Assay: scIgG?
A: Its Enzyme Activity Endpoint Assay: scIgG is 0 ng/µL.

Q: What does the source list for B6?
A: Enzyme Activity Endpoint Assay: Fab′2: 660 ng/µL; Enzyme Activity Endpoint Assay: Fc: 357 ng/µL; Enzyme Activity Endpoint Assay: IgG: 0 ng/µL; Enzyme Activity Endpoint Assay: scIgG: 227 ng/µL

Q: How did the Enzyme Activity Endpoint Assay: Fab′2 turn out when B7 was run?
A: Its Enzyme Activity Endpoint Assay: Fab′2 is 930 ng/µL.

Q: What about the Enzyme Activity Endpoint Assay: Fc of the same protein?
A: Its Enzyme Activity Endpoint Assay: Fc is 310 ng/µL.

Q: And the Enzyme Activity Endpoint Assay: IgG?
A: Its Enzyme Activity Endpoint Assay: IgG is 0 ng/µL.

Q: What about the Enzyme Activity Endpoint Assay: scIgG of the same protein?
A: Its Enzyme Activity Endpoint Assay: scIgG is 0 ng/µL.

Q: With B8 as the protein, how does the Enzyme Activity Endpoint Assay: Fab′2 read?
A: The Enzyme Activity Endpoint Assay: Fab′2 was 606 ng/µL.

Q: And the Enzyme Activity Endpoint Assay: Fc?
A: Its Enzyme Activity Endpoint Assay: Fc is 405 ng/µL.

Q: What about the Enzyme Activity Endpoint Assay: IgG of the same protein?
A: Its Enzyme Activity Endpoint Assay: IgG is 0 ng/µL.

Q: And the Enzyme Activity Endpoint Assay: scIgG?
A: The Enzyme Activity Endpoint Assay: scIgG was 0 ng/µL.

Q: For B9, which Enzyme Activity Endpoint Assay: Fab′2 is on record?
A: Its Enzyme Activity Endpoint Assay: Fab′2 is 0 ng/µL.

Q: And the Enzyme Activity Endpoint Assay: Fc?
A: Its Enzyme Activity Endpoint Assay: Fc is 0 ng/µL.

Q: What about the Enzyme Activity Endpoint Assay: IgG of the same protein?
A: The Enzyme Activity Endpoint Assay: IgG was 1470 ng/µL.

Q: And the Enzyme Activity Endpoint Assay: scIgG?
A: The Enzyme Activity Endpoint Assay: scIgG was 0 ng/µL.

Q: What does the source list for B10?
A: Enzyme Activity Endpoint Assay: Fab′2: 0 ng/µL; Enzyme Activity Endpoint Assay: Fc: 27 ng/µL; Enzyme Activity Endpoint Assay: IgG: 986 ng/µL; Enzyme Activity Endpoint Assay: scIgG: 0 ng/µL

Q: What does the source list for B11?
A: Enzyme Activity Endpoint Assay: Fab′2: 606 ng/µL; Enzyme Activity Endpoint Assay: Fc: 353 ng/µL; Enzyme Activity Endpoint Assay: IgG: 97 ng/µL; Enzyme Activity Endpoint Assay: scIgG: 0 ng/µL

Q: B12 was tested. Which Enzyme Activity Endpoint Assay: Fab′2 did it give?
A: Its Enzyme Activity Endpoint Assay: Fab′2 is 654 ng/µL.

Q: What about the Enzyme Activity Endpoint Assay: Fc of the same protein?
A: Its Enzyme Activity Endpoint Assay: Fc is 370 ng/µL.

Q: What about the Enzyme Activity Endpoint Assay: IgG of the same protein?
A: Its Enzyme Activity Endpoint Assay: IgG is 0 ng/µL.

Q: And the Enzyme Activity Endpoint Assay: scIgG?
A: Its Enzyme Activity Endpoint Assay: scIgG is 0 ng/µL.

Q: For B13, which Enzyme Activity Endpoint Assay: Fab′2 is on record?
A: Its Enzyme Activity Endpoint Assay: Fab′2 is 610 ng/µL.

Q: What about the Enzyme Activity Endpoint Assay: Fc of the same protein?
A: The Enzyme Activity Endpoint Assay: Fc was 376 ng/µL.

Q: And the Enzyme Activity Endpoint Assay: IgG?
A: Its Enzyme Activity Endpoint Assay: IgG is 55 ng/µL.

Q: And the Enzyme Activity Endpoint Assay: scIgG?
A: Its Enzyme Activity Endpoint Assay: scIgG is 0 ng/µL.

Q: Which Enzyme Activity Endpoint Assay: Fab′2 does the source give for B14 here?
A: Its Enzyme Activity Endpoint Assay: Fab′2 is 14 ng/µL.

Q: What about the Enzyme Activity Endpoint Assay: Fc of the same protein?
A: Its Enzyme Activity Endpoint Assay: Fc is 114 ng/µL.

Q: What about the Enzyme Activity Endpoint Assay: IgG of the same protein?
A: The Enzyme Activity Endpoint Assay: IgG was 354 ng/µL.

Q: And the Enzyme Activity Endpoint Assay: scIgG?
A: The Enzyme Activity Endpoint Assay: scIgG was 691 ng/µL.

Q: With B15 as the protein, how does the Enzyme Activity Endpoint Assay: Fab′2 read?
A: Its Enzyme Activity Endpoint Assay: Fab′2 is 0 ng/µL.

Q: What about the Enzyme Activity Endpoint Assay: Fc of the same protein?
A: Its Enzyme Activity Endpoint Assay: Fc is 142 ng/µL.

Q: And the Enzyme Activity Endpoint Assay: IgG?
A: The Enzyme Activity Endpoint Assay: IgG was 707 ng/µL.

Q: And the Enzyme Activity Endpoint Assay: scIgG?
A: Its Enzyme Activity Endpoint Assay: scIgG is 396 ng/µL.

Reference: patent US20250027068
